Source: patent US9528993B2, “Agents and methods related to screening for resistance to DR5 and reducing resistance to DR5 agonists” (The UAB Research Foundation, priority 2005, dated 2016)

How the values were obtained:
[1] = test system: TRA-8-resistant tumor cells; test: ATPLITE assay of TRA-8-resistant tumor cells transfected with DDX3ΔCARD; format: cell-based; settings: four lines, adenoviral vector, 500 ng/ml TRA-8 overnight
Description: Cytotoxicity analysis of tumor cell susceptibility to TRA-8, 2E12, and TRAIL-mediated apoptosis. Cells (1,000 cells per well) were seeded into 96-well plates in triplicate with eight concentrations (double serial dilutions from 1000 ng/ml) of TRA-8, 2E12, or TRAIL. Cell viability was determined after overnight culture using an ATPLITE™ assay according to the manufacturer's instructions (Packard Instruments, Meriden, Conn.). The results are presented as the precentage of viable cells in treated wells compared to medium control wells.

cIAP1 = target: T1, cIAP1 (Homo sapiens, UniProt Q13490); test: Co-immunoprecipitation of DDX3 mutant with cIAP1; format: binding
T1 construct: endogenous in cells
Description: Anti-DDX3 or anti-TRAIL-R2 antibody was conjugated to Sepharose beads (Sigma). The composition of the TRAIL-R2 DISC was determined as follows. 5×10^6 cells (if not otherwise indicated) were treated with 500 ng/ml of TRA-8 for the indicated time at 37° C. and then lysed in immunoprecipitation-lysis buffer (20 mM Tris-HCl, pH 7.4, 150 mM NaCl, 0.2% NONIDET P40, and 10% glycerol and complete protease inhibitor cock-tail) or lysed without treatment (unstimulated condition). […] After immunoprecipitation, the beads were washed four times with lysis buffer. The beads were then washed five times with 10 mM Tris buffer and resuspended in loading buffer for SDS-PAGE and immunoblotting analyses.

T1 sequence (Q13490 whole entry): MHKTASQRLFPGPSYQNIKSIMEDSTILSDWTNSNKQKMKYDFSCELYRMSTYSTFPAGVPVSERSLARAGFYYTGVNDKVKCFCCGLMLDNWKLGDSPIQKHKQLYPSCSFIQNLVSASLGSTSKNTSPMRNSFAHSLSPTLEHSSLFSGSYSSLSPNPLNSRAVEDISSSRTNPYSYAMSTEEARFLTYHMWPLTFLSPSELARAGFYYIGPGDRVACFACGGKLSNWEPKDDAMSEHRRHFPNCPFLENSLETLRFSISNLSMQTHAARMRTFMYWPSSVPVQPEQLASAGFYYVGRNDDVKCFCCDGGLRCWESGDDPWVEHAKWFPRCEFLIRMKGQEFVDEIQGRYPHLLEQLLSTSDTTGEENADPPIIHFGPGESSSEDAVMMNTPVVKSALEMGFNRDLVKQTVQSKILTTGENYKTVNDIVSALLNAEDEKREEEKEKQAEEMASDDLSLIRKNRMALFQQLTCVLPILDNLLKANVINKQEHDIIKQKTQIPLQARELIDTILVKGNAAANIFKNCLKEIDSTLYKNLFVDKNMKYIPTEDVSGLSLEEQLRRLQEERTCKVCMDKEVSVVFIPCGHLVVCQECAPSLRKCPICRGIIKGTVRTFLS

interaction with cIAP1 (cIAP1): fails to interact with cIAP1
B1: DDX3ΔCARD: dominant negative mutant DDX3 lacking aa 1-150 (CARD-truncated DDX3) (protein)
chain: FSGGNTGINFEKYDDIPVEATGNNCPPHIESFSDVEMGEIIMGNIELTRYTRPTPVQKHAIPIIKEKRDLMACAQTGSGKTAAFLLPILSQIYSDGPGEALRAMKENGRYGRRKQYPISLVLAPTRELAVQIYEEARKFSYRSRVRPCVVYGGADIGQQIRDLERGCHLLVATPGRLVDMMERGKIGLDFCKYLVLDEADRMLDMGFEPQIRRIVEQDTMPPKGVRHTMMFSATFPKEIQMLARDFLDEYIFLAVGRVGSTSENITQKVVWVEESDKRSFLLDLLNATGKDSLTLVFVETKKGADSLEDFLYHEGYACTSIHGDRSQRDREEALHQFRSGKSPILVATAVAARGLDISNVKHVINFDLPSDIEEYVHRIGRTGRVGNLGLATSFFNERNINITKDLLDLLVEAKQEVPSWLENMAYEHHYKGSSRGRSKSSRFSGGFGARDYRQSSGASSSSFSSSRASSSRSGGGGHGSSRGFGGGGYGGFYNSDGYGGNYNSQGVDWWGN
susceptibility to TRA-8-induced apoptosis [1]: regained their susceptibility to TRA-8-induced apoptosis
